In patent publication US20250320281A1:

How the values were obtained:
Assay in all cases: cell-based or functional assay
[1] = molecular target: HIV-1 Env of isolate 92TH021 (subtype AE) (HIV-1)
[2] = molecular target: HIV-1 Env of isolate 92WR009 (HIV-1)
[3] = molecular target: HIV-1 Env of isolate 92WR020 (HIV-1)
[4] = molecular target: HIV-1 Env of isolate APV-17 (HIV-1)
[5] = molecular target: HIV-1 Env of isolate MG RM-D-020 (HIV-1)
[6] = molecular target: HIV-1 Env of isolate MGRM-A-004 (HIV-1)
[7] = molecular target: HIV-1 Env of isolate MGRM-AE-004 (subtype AE) (HIV-1)
[8] = molecular target: HIV-1 Env of isolate MGRM-C-026 (pseudovirus) (HIV-1)
[9] = molecular target: HIV-1 Env of isolate MGRM-Chronic-B-012 (subtype B) (HIV-1)
[10] = molecular target: HIV-1 Env of pseudovirus isolate MGRM-G-024 (HIV-1)
[11] = molecular target: HIV-1 envelope glycoprotein (Env) of isolate MGRM-C-017 (HIV-1)
[12] = molecular target: HIV-1 envelope glycoprotein (Env) of isolate MGRM-C-024 (HIV-1)
[13] = molecular target: HIV-1 Env of isolate MGRM-G-004 (HIV-1)
[14] = molecular target: HIV-1 Env of isolate MGRM-G-009 (HIV-1)
[15] = molecular target: HIV-1 Env of isolate MGRM-G-025 (HIV-1)
[16] = molecular target: HIV-1 Env of isolate MGRM-G-027 (HIV-1)
[17] = molecular target: HIV-1 MGRM-AG-005 Env (pseudovirus) (HIV-1)
[18] = molecular target: HIV-1 93UG077 Env (pseudovirus, clade A) (HIV-1)
[19] = molecular target: HIV-1 APV13 Env (pseudovirus, clade B) (HIV-1)
[20] = molecular target: HIV-1 Env of isolate 98CN006 (pseudovirus) (HIV-1)
[21] = molecular target: HIV-1 Env of isolate MGRM-AG-002 (HIV-1)
[22] = molecular target: HIV-1 Env of isolate MGRM-Chronic-B-004 (subtype B pseudovirus) (HIV-1)
[23] = molecular target: HIV-1 Env of isolate MGRM-Chronic-B-011 (subtype B pseudovirus) (HIV-1)
[24] = molecular target: HIV-1 Env of isolate MGRM-Chronic-B-024 (subtype B pseudovirus) (HIV-1)
[25] = molecular target: HIV-1 Env of isolate MGRM-D-005 (pseudovirus) (HIV-1)
[26] = molecular target: HIV-1 Env of isolate MGRM-D-018 (pseudovirus) (HIV-1)
[27] = molecular target: HIV-1 Env of isolate MGRM-F1-010 (pseudovirus) (HIV-1)
[28] = molecular target: HIV-1 Env of isolate TRO.11 (subtype B pseudovirus) (HIV-1)
[29] = molecular target: HIV-1 APV-6 envelope glycoprotein (Env) on pseudovirus (HIV-1)
[30] = molecular target: HIV-1 Env of isolate 92RW021 (clade A pseudovirus) (HIV-1)
[31] = molecular target: HIV-1 Env of isolate 98IN022 (clade C) (HIV-1 isolate 98IN022)
[32] = molecular target: HIV-1 Env of isolate MGRM-Chronic-B-008, clade B, on pseudovirus (HIV-1)
[33] = molecular target: HIV-1 Env of pseudovirus MGRM-AE-004 (clade CRF01_AE) (HIV-1)
[34] = molecular target: HIV-1 Env of pseudovirus MGRM-AG-011 (clade CRF_AG) (HIV-1)
[35] = molecular target: HIV-1 Env of pseudovirus MGRM-AG-012 (clade CRF_AG) (HIV-1)
[36] = molecular target: HIV-1 Env of pseudovirus MGRM-Chronic-B-018 (HIV-1)
[37] = molecular target: HIV-1 Env of pseudovirus MGRM-Chronic-B-023 (HIV-1)
[38] = molecular target: HIV-1 Env of pseudovirus MGRM-Chronic-B-024 (HIV-1)
[39] = molecular target: HIV-1 Env of pseudovirus MGRM-G-014 (HIV-1, clade G isolate MGRM-G-014)
[40] = molecular target: HIV-1 JRCSF envelope glycoprotein (Env) on pseudovirus (HIV-1) (UniProt P20871)

Chain of 4993_K13 (PGT-141) (antibody) (VH): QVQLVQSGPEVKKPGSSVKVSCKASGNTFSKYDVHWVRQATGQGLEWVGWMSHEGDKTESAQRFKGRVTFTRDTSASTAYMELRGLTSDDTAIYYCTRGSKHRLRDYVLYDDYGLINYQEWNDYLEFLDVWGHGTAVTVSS
Chain of 4993_K13 (PGT-141) (antibody) (VL): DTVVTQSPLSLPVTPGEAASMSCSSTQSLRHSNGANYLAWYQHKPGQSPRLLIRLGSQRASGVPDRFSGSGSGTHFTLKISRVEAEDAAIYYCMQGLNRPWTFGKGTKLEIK
Chain of 4980_N08 (PGT-143) (antibody) (VH): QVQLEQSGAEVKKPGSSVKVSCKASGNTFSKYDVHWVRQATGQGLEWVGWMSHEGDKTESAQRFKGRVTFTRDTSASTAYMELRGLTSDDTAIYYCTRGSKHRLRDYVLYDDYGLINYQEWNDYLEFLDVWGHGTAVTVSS
Chain of 4980_N08 (PGT-143) (antibody) (VL): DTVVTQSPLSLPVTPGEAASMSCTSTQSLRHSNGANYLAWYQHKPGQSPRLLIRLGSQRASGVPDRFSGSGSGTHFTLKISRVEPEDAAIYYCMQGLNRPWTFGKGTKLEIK

Work on 5136_H01 (PGT-131) (antibody) yielded an IC50 (µg/mL), pseudovirus neutralization [1] of 0.014 µg/mL, an IC50 [2] of 3.12 µg/mL and an IC50 [3] of 0.168 µg/mL. The neutralization IC50 [4] was greater than 50 µg/mL, the IC50 (µg/mL), pseudovirus neutralization [5] was greater than 50 µg/mL and the IC50 [6] was greater than 50 µg/mL. It also gave an IC50 (µg/mL), pseudovirus neutralization [7] greater than 50 µg/mL, a Primary Neutralization Index (B cell culture supernatant) [8] of 1.2 and an IC50 neutralization [9] of 15.7 µg/mL. For the same substance, the IC50 (µg/mL), pseudovirus neutralization [10] was 10.7 µg/mL, the IC50 (µg/mL), pseudovirus neutralization [11] was greater than 50 µg/mL and the IC50 (µg/mL), pseudovirus neutralization [12] was greater than 50 µg/mL.

For 4980_N08 (PGT-143) (antibody), the IC50 (µg/mL), pseudovirus neutralization [1] was 0.003 µg/mL, the IC50 (µg/mL), pseudovirus neutralization [7] was 0.002 µg/mL and the IC50 (µg/mL), pseudovirus neutralization [13] was greater than 50 µg/mL. It also gave an IC50 (µg/mL), pseudovirus neutralization [14] of 2.97 µg/mL, an IC50 (µg/mL), pseudovirus neutralization [15] greater than 50 µg/mL and an IC50 (µg/mL), pseudovirus neutralization [16] greater than 50 µg/mL. It also gave an IC50 (neutralizing activity, pseudovirus) [17] of 0.244 µg/mL.

For 4993_K13 (PGT-141) (antibody), the IC50 (µg/mL), pseudovirus neutralization [1] was 0.001 µg/mL, the IC50 (µg/mL), pseudovirus neutralization [7] was 0.001 µg/mL and the IC50 (µg/mL), pseudovirus neutralization [13] was greater than 50 µg/mL. For the same substance, the IC50 (µg/mL), pseudovirus neutralization [14] was 1.89 µg/mL, the IC50 (µg/mL), pseudovirus neutralization [15] was greater than 50 µg/mL and the IC50 (µg/mL), pseudovirus neutralization [16] was greater than 50 µg/mL. It also gave an IC50 (neutralizing activity, pseudovirus) [17] of 0.392 µg/mL.

Work on 4877_D15 (PGT-122) (antibody) yielded an IC50 neutralization [18] of 0.191 µg/mL, an IC50 neutralization [19] of 0.992 µg/mL and an IC50, pseudovirus neutralization [20] of 0.021 µg/mL. The IC50 [21] was greater than 50 µg/mL, the IC50 (µg/mL), pseudovirus neutralization [22] was 0.008 µg/mL and the IC50 (µg/mL), pseudovirus neutralization [23] was greater than 50 µg/mL. It also gave an IC50 (µg/mL), pseudovirus neutralization [24] of 2.31 µg/mL, an IC50, pseudovirus neutralization [25] greater than 50 µg/mL and an IC50, pseudovirus neutralization [26] of 0.007 µg/mL. It also gave an IC50, pseudovirus neutralization [27] of 0.024 µg/mL, an IC50 (µg/mL), pseudovirus neutralization [28] of 0.011 µg/mL and an IC50 (µg/mL), pseudovirus neutralization [10] of 0.033 µg/mL. The neutralization IC50 (pseudovirus) [17] was greater than 10 µg/mL.

In the case of 5145_B14 (PGT-127) (antibody), the IC50, pseudovirus neutralization [20] is reported as 0.067 µg/mL, the IC50 [21] is reported as greater than 50 µg/mL and the Polyclonal Transfectant Neutralization Index [8] is reported as 2.62. The Primary Neutralization Index (B cell culture supernatant) [8] was 86.9, the IC50 (µg/mL), pseudovirus neutralization [22] was 0.018 µg/mL and the IC50 (µg/mL), pseudovirus neutralization [23] was 0.297 µg/mL. For the same substance, the IC50 (µg/mL), pseudovirus neutralization [24] was greater than 50 µg/mL, the IC50, pseudovirus neutralization [25] was 6.02 µg/mL and the IC50, pseudovirus neutralization [26] was 0.021 µg/mL. For the same substance, the IC50, pseudovirus neutralization [27] was greater than 50 µg/mL, the IC50 (µg/mL), pseudovirus neutralization [28] was 0.079 µg/mL and the IC50 (µg/mL), pseudovirus neutralization [10] was greater than 50 µg/mL.

4838_L06 (PGT-121) (antibody) was tested, and the IC50, pseudovirus neutralization [20] was 0.01 µg/mL, the IC50 [21] was greater than 50 µg/mL and the IC50 (µg/mL), pseudovirus neutralization [22] was 0.009 µg/mL. It also gave an IC50 (µg/mL), pseudovirus neutralization [23] greater than 50 µg/mL, an IC50 (µg/mL), pseudovirus neutralization [24] of 0.195 µg/mL and an IC50, pseudovirus neutralization [25] greater than 50 µg/mL. The IC50, pseudovirus neutralization [26] was 0.005 µg/mL, the IC50, pseudovirus neutralization [27] was 0.016 µg/mL and the IC50 (µg/mL), pseudovirus neutralization [28] was 0.008 µg/mL.

Substance 5343_B08 (PGT-135) (antibody) has an IC50 neutralization [18] greater than 10 µg/mL, an IC50 neutralization [19] of 0.545 µg/mL and an IC50 (µg/mL), pseudovirus neutralization [1] greater than 50 µg/mL. For the same substance, the IC50 [2] was greater than 50 µg/mL, the IC50 [3] was 0.067 µg/mL and the neutralization IC50 [4] was greater than 50 µg/mL. The IC50 (µg/mL), pseudovirus neutralization [5] was greater than 50 µg/mL, the IC50 [6] was greater than 50 µg/mL and the IC50 (µg/mL), pseudovirus neutralization [7] was greater than 50 µg/mL. For the same substance, the Primary Neutralization Index (B cell culture supernatant) [8] was 6.5, the IC50 neutralization [9] was 0.166 µg/mL and the IC50 (µg/mL), pseudovirus neutralization [10] was 0.062 µg/mL. For the same substance, the IC50 (neutralizing activity, pseudovirus) [17] was greater than 10 µg/mL, the IC50 (µg/mL), pseudovirus neutralization [11] was greater than 50 µg/mL and the IC50 (µg/mL), pseudovirus neutralization [12] was greater than 50 µg/mL.

In the case of 1496_C09 (PG9) (TCN-109) (antibody), the IC50, pseudovirus neutralization [29] is reported as 0.0869 µg/mL, the IC50 (µg/ml), pseudovirus neutralization [30] is reported as 0.05 µg/mL and the IC50 (µg/ml), pseudovirus neutralization [31] is reported as 0.006 µg/mL. The IC50 (µg/ml), pseudovirus neutralization [32] was 6.66 µg/mL, the IC50 (µg/mL), pseudovirus neutralization [14] was 10.7 µg/mL and the IC50 (µg/mL), pseudovirus neutralization [16] was 0.007 µg/mL. For the same substance, the IC50 [33] was 0.01 µg/mL, the IC50 [34] was 0.01 µg/mL and the IC50 [35] was 1.37 µg/mL. For the same substance, the IC50 (µg/ml), pseudovirus neutralization [36] was 0.16 µg/mL, the IC50 (µg/ml), pseudovirus neutralization [37] was 0.04 µg/mL and the IC50 (µg/ml), pseudovirus neutralization [38] was 0.18 µg/mL. It also gave an IC50 (µg/ml), pseudovirus neutralization [39] of 6.32 µg/mL, an IC50, pseudovirus neutralization [40] of less than 0.0025 µg/mL and an IC90 (pseudovirus neutralization) [40] of less than 0.0025 µg/mL.
